Source: patent US20160237156A1

Columns and labels:
[1] = molecular target: CXCR4 (human) (UniProt P61073); experiment: cell-based or functional assay
[2] = molecular target: CXCR4 (human) (UniProt P61073); experiment: flow cytometry on Jurkat cells, competition with fluorescein conjugated 12G5 (66.6 nM) as competitor
[3] = molecular target: SNAP-tag-CXCR4 (Tag-lite labeled CXCR4 cells, Cisbio Bioassays) (UniProt P61073); experiment: Tag-lite HTRF competition with 50 nM fluorescent SDF-1, Cheng-Prusoff
[4] = molecular target: CXCR4 (human) (UniProt P61073); experiment: flow cytometry on CXCR4 transfected CHO cells, 1 µg/ml antibody
[5] = molecular target: SNAP-tag-CXCR4 (Tag-lite labeled CXCR4 cells, Cisbio Bioassays) (UniProt P61073); experiment: Tag-lite HTRF competition with 50 nM fluorescent SDF-1 on Tag-lite labeled CXCR4 cells

Chain of CXCR4 (human) (P61073 whole entry): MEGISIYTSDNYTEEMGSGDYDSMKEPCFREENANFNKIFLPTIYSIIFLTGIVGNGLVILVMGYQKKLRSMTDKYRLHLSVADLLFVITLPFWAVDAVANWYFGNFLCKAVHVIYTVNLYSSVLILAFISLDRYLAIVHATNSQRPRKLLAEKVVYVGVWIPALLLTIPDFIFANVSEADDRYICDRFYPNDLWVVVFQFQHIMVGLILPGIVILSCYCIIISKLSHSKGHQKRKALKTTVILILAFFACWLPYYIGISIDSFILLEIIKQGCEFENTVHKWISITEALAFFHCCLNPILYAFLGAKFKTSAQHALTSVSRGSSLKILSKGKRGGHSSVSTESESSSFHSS
Chain of SNAP-tag-CXCR4 (Tag-lite labeled CXCR4 cells, Cisbio Bioassays) (P61073 whole entry): as above

B1: BLV1H12-beta BCCX2 HC 1 IgG (antibody, V domains shown)
VH: QVQLRESGPSLVKPSQTLSLTCTASGFSLSDKAVGWVRQAPGKALEWLGSIDTGGNTGYNPGLKSRLSITKDNSKSQVSLSVSSVTTEDSATYYCTSVHQETKKYQSYRKCRGGRRWCYQKSYTYNYEWHVDVWGQGLLVTVSS
VL: QAVLNQPSSVSGSLGQRVSITCSGSSSNVGNGYVSWYQLIPGSAPRTLIYGDTSRASGVPDRFSGSRSGNTATLTISSLQAEDEADYFCASAEDSSSNAVFGSGTTLTVLG
Question: Which results are given for B1?
Answer: inhibition of SDF-1 induced migration of Ramos cells, EC50 [1]: 8.5 nM; IC50 [2]: 39.3 nM; Ki [3]: 2.12 nM; flow cytometry peak shift [4]: 73.8%; IC50 [5]: 9.58 nM
